Source: patent publication US20240101707A1, “A METHOD OF PREVENTING, ALLEVIATING OR TREATING A TUMOR” (JIANGSU ALPHAMAB BIOPHARMACEUTICALS CO., LTD., priority 2021, published 2024)

Biological target: T1, Human PD-L1 (WT) (human, UniProt Q9NZQ7 19-127, limits assumed)
T1 construct: also called human PD-L1 N-terminal IgV domain
Assay: affinity measurement, method not stated

T1 sequence (Q9NZQ7 19-127 limits assumed): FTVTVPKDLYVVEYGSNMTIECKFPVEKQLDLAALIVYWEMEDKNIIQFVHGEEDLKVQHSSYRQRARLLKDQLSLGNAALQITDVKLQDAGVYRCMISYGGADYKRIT

Kd: 5.92 nM
B1: PD-L1 ISVD-9 (VHH)
VHH: QVQLVESGGGLVQPGGSLRLSCAASGKMSSRRCMAWFRQAPGKERERVAKLLTTSGSTYLADSVKGRFTISRDNSKNTVYLQMNSLRAEDTAVYYCAADSFEDPTCTLVTSSGAFQYWGQGTLVTVSS
notes: also called ISVD specific for PD-L1
